# Target: polyhistidine-tagged human FcRn (human) (UniProt P55899)
# Experiment: AlphaScreen competition, pH 6.0, against biotinylated human IgG1 mAb CNTO 6234 on polyHis human FcRn
# Chain of polyhistidine-tagged human FcRn (human) (P55899 24-297 limits assumed, chain 1 of 2): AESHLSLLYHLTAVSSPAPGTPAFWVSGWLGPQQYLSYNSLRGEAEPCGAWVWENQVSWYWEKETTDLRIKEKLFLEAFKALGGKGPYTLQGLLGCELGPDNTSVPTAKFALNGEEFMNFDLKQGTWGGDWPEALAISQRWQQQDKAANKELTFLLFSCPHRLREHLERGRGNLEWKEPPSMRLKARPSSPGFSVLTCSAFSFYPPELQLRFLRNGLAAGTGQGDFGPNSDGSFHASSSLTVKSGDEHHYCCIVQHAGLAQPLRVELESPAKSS
# Chain of polyhistidine-tagged human FcRn (human) (P61769 21-119 limits assumed, chain 2 of 2, further chain): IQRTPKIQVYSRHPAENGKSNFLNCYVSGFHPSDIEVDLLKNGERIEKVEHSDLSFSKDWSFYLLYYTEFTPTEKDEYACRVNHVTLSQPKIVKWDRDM
substance,measurement,value
CNTO 5303 (CNTO 530 T359N/N361T) (from UniProt P01861 116-325) (Fc fusion),fold change of KD against CNTO 530,2 fold

# Source: patent publication US20120276092A1
